From patent US20250250322A1 (CHILDREN S HOSPITAL OF PHILADELPHIA, published 2025) come the findings set out here.

The target in the assay is T1, Factor IXa (UniProt P00740 47-191; P00740 227-461).
T1 construct: also called FIXa
The assay can be described thus: functional Kd from intrinsic Xase FXa-generation assay; 0.25 nM FVIIIa, 0-20 nM FIXa, 200 nM FX, 20 uM phospholipids. How it is done: Kinetic analysis of FXa generation was performed by an intrinsic Xase assay, as described with modifications (Wilhelm, et al. (2021) Blood 137:2532-2543; Lollar, et al. (1989) Biochemistry 28 (2): 666-674). Activated FVIII (FVIIIa) was generated by incubating 25 nM FVIII with 100 nM thrombin for 30 seconds and thereafter quenched with hirudin (150 nM). […] At various time intervals (0.25-2 minutes), aliquots of the reaction mixture were quenched in 20 mM HEPES, 150 mM NaCl, 25 mM EDTA, 0.1% polyethylene glycol-8000, pH 7.4. The amount of FXa in each quenched sample was assessed using Spectrozyme® Xa by measuring absorbance at 405 nm in SpectraMax® 190 Microplate reader (Molecular Devices) and comparing the results to a prepared FXa standard curve.
TABLE 1 Biochemical Characterization of FVIII Proteins. Specific activity was determined by an aPTT based clotting assay measurement of clotting activity relative to protein concentration. Kinetic values were determined for FX activation by an intrinsic Xase assay using equimolar FVIIIa and FIXa (0.25 nM) 0.25 nM FVIIIa, 0.25 nM or 0-20 nM FIXa and 0-500 nM FX in the presence of 20 μM phospholipids. […] Data are represented as means ± SEM from at least two independent experiments.

T1 sequence (P00740 47-191 limits assumed, form in doubt, chain 1 of 2): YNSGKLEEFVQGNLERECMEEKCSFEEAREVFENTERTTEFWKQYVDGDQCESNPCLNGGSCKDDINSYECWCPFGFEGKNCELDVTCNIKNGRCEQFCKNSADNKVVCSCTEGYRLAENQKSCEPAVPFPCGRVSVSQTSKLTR
T1 sequence (P00740 227-461 limits assumed, form in doubt, chain 2 of 2): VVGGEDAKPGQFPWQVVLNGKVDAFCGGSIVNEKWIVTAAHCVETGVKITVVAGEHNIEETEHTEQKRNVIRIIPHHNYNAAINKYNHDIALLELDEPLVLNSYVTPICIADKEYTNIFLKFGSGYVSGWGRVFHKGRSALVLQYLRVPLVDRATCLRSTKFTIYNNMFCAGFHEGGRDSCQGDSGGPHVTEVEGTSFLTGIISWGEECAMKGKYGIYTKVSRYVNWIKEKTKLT

B1: FVIIIa-QQVV (thrombin-activated B-domain deleted FVIII R336Q/R562Q/D519V/E665V) (other)
chain 1: ATRRYYLGAVELSWDYMQSDLGELPVDARFPPRVPKSFPFNTSVVYKKTLFVEFTDHLFNIAKPRPPWMGLLGPTIQAEVYDTVVITLKNMASHPVSLHAVGVSYWKASEGAEYDDQTSQREKEDDKVFPGGSHTYVWQVLKENGPMASDPLCLTYSYLSHVDLVKDLNSGLIGALLVCREGSLAKEKTQTLHKFILLFAVFDEGKSWHSETKNSLMQDRDAASARAWPKMHTVNGYVNRSLPGLIGCHRKSVYWHVIGMGTTPEVHSIFLEGHTFLVRNHRQASLEISPITFLTAQTLLMDLGQFLLFCHISSHQHDGMEAYVKVDSCPEEPQLQMKNNEEAEDYDDDLTDSEMDVVRFDDDNSPSFIQIR
chain 2: SVAKKHPKTWVHYIAAEEEDWDYAPLVLAPDDRSYKSQYLNNGPQRIGRKYKKVRFMAYTDETFKTREAIQHESGILGPLLYGEVGDTLLIIFKNQASRPYNIYPHGITDVRPLYSRRLPKGVKHLKDFPILPGEIFKYKWTVTVEVGPTKSDPRCLTRYYSSFVNMERDLASGLIGPLLICYKESVDQQGNQIMSDKRNVILFSVFDENRSWYLTENIQRFLPNPAGVQLEDPEFQASNIMHSINGYVFDSLQLSVCLHEVAYWYILSIGAQTDFLSVFFSGYTFKHKMVYVDTLTLFPFSGETVFMSMENPGLWILGCHNSDFRNRGMTALLKVSSCDKNTGDYYEDSYEDISAYLLSKNNAIEPR
chain 3: SFQKKTRHYFIAAVERLWDYGMSSSPHVLRNRAQSGSVPQFKKVVFQEFTDGSFTQPLYRGELNEHLGLLGPYIRAEVEDNIMVTFRNQASRPYSFYSSLISYEEDQRQGAEPRKNFVKPNETKTYFWKVQHHMAPTKDEFDCKAWAYFSDVDLEKDVHSGLIGPLLVCHTNTLNPAHGRQVTVQEFALFFTIFDETKSWYFTENMERNCRAPCNIQMEDPTFKENYRFHAINGYIMDTLPGLVMAQDQRIRWYLLSMGSNENIHSIHFSGHVFTVRKKEEYKMALYNLYPGVFETVEMLPSKAGIWRVECLIGEHLHAGMSTLFLVYSNKCQTPLGMASGHIRDFQITASGQYGQWAPKLARLHYSGSINAWSTKEPFSWIKVDLLAPMIIHGIKTQGARQKFSSLYISQFIIMYSLDGKKWQTYRGNSTGTLMVFFGNVDSSGIKHNIFNPPIIARYIRLHPTHYSIRSTLRMELMGCDLNSCSMPLGMESKAISDAQITASSYFTNMFATWSPSKARLHLQGRSNAWRPQVNNPKEWLQVDFQKTMKVTGVTTQGVKSLLTSMYVKEFLISSSQDGHQWTLFFQNGKVKVFQGNQDSFTPVVNSLDPPLLTRYLRIHPQSWVHQIALRMEVLGCEAQDLY
notes: also called FVIII-QQVV; FVIII-QQ/VV
A word on the Kd: it is the equilibrium constant for the complex coming apart. Read a low Kd as a tighter complex. B1 had a Kd of 1.2 nM.

B2: FVIIIa-VV (thrombin-activated B-domain deleted FVIII D519V/E665V) (other)
chain 1: ATRRYYLGAVELSWDYMQSDLGELPVDARFPPRVPKSFPFNTSVVYKKTLFVEFTDHLFNIAKPRPPWMGLLGPTIQAEVYDTVVITLKNMASHPVSLHAVGVSYWKASEGAEYDDQTSQREKEDDKVFPGGSHTYVWQVLKENGPMASDPLCLTYSYLSHVDLVKDLNSGLIGALLVCREGSLAKEKTQTLHKFILLFAVFDEGKSWHSETKNSLMQDRDAASARAWPKMHTVNGYVNRSLPGLIGCHRKSVYWHVIGMGTTPEVHSIFLEGHTFLVRNHRQASLEISPITFLTAQTLLMDLGQFLLFCHISSHQHDGMEAYVKVDSCPEEPQLRMKNNEEAEDYDDDLTDSEMDVVRFDDDNSPSFIQIR
chain 2: SVAKKHPKTWVHYIAAEEEDWDYAPLVLAPDDRSYKSQYLNNGPQRIGRKYKKVRFMAYTDETFKTREAIQHESGILGPLLYGEVGDTLLIIFKNQASRPYNIYPHGITDVRPLYSRRLPKGVKHLKDFPILPGEIFKYKWTVTVEVGPTKSDPRCLTRYYSSFVNMERDLASGLIGPLLICYKESVDQRGNQIMSDKRNVILFSVFDENRSWYLTENIQRFLPNPAGVQLEDPEFQASNIMHSINGYVFDSLQLSVCLHEVAYWYILSIGAQTDFLSVFFSGYTFKHKMVYVDTLTLFPFSGETVFMSMENPGLWILGCHNSDFRNRGMTALLKVSSCDKNTGDYYEDSYEDISAYLLSKNNAIEPR
chain 3: SFQKKTRHYFIAAVERLWDYGMSSSPHVLRNRAQSGSVPQFKKVVFQEFTDGSFTQPLYRGELNEHLGLLGPYIRAEVEDNIMVTFRNQASRPYSFYSSLISYEEDQRQGAEPRKNFVKPNETKTYFWKVQHHMAPTKDEFDCKAWAYFSDVDLEKDVHSGLIGPLLVCHTNTLNPAHGRQVTVQEFALFFTIFDETKSWYFTENMERNCRAPCNIQMEDPTFKENYRFHAINGYIMDTLPGLVMAQDQRIRWYLLSMGSNENIHSIHFSGHVFTVRKKEEYKMALYNLYPGVFETVEMLPSKAGIWRVECLIGEHLHAGMSTLFLVYSNKCQTPLGMASGHIRDFQITASGQYGQWAPKLARLHYSGSINAWSTKEPFSWIKVDLLAPMIIHGIKTQGARQKFSSLYISQFIIMYSLDGKKWQTYRGNSTGTLMVFFGNVDSSGIKHNIFNPPIIARYIRLHPTHYSIRSTLRMELMGCDLNSCSMPLGMESKAISDAQITASSYFTNMFATWSPSKARLHLQGRSNAWRPQVNNPKEWLQVDFQKTMKVTGVTTQGVKSLLTSMYVKEFLISSSQDGHQWTLFFQNGKVKVFQGNQDSFTPVVNSLDPPLLTRYLRIHPQSWVHQIALRMEVLGCEAQDLY
notes: also called FVIII-VV
Turning to B2, the Kd amounted to 1.6 nM.
